According to PMC12416549 (2024):
Substitutions are numbered along the chain they refer to. Numbers in names are those of the source. One block for each binder: values may come before it.

Target: T1, TNFR1 (Homo sapiens, UniProt P19438)
T1 chain: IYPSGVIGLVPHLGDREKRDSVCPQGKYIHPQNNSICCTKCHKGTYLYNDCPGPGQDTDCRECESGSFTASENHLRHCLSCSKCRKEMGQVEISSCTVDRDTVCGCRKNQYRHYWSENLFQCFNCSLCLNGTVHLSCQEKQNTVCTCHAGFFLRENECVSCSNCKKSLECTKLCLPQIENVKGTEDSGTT
Experiment: yeast display SC50

B2: E22I (designed binder)
chain: SMEEEVEKAAKEYEKKKKEAIIKHLEKLKAKDKEAAERFLKELEEAAKEYAKDEAKTMSEEEAKRRAKKYKEKVLLSELSEEEQKEIKEAEEKLVRTILKYVEEAAK
apparent Kd (screen): 1.16 nM

B3: D53P (designed binder)
chain: B2 chain with I22E, D53P
apparent Kd (screen): 0.869 nM

B4: S1Y (designed binder)
chain: B2 chain with S1Y, I22E
apparent Kd (screen): 3 nM

B7: E92T (designed binder)
chain: B2 chain with I22E, E92T
apparent Kd (screen): 3.3 nM

B8: R38W (designed binder)
chain: B2 chain with I22E, R38W
apparent Kd (screen): 0.446 nM

B9: E12M (designed binder)
chain: B2 chain with E12M, I22E
apparent Kd (screen): 0.539 nM

B11: L43N (designed binder)
chain: B2 chain with I22E, L43N
apparent Kd (screen): 0.446 nM

B14: S80T (designed binder)
chain: B2 chain with I22E, S80T
apparent Kd (screen): 1.27 nM

B16: L94R (designed binder)
chain: B2 chain with I22E, L94R
apparent Kd (screen): 4.83 nM

B18: R38F (designed binder)
chain: B2 chain with I22E, R38F
apparent Kd (screen): 1.05 nM

B19: E89R (designed binder)
chain: B2 chain with I22E, E89R
apparent Kd (screen): 2.73 nM

B20: S59D (designed binder)
chain: B2 chain with I22E, S59D
apparent Kd (screen): 2.25 nM

B21: Y50M (designed binder)
chain: B2 chain with I22E, Y50M
apparent Kd (screen): 0.446 nM

B24: K107A (designed binder)
chain: B2 chain with I22E, K107A
apparent Kd (screen): 1.54 nM

Next, values leading:

apparent Kd (screen): 0.368 nM
B1: K23Y (designed binder)
chain: B2 chain with I22E, K23Y

apparent Kd (screen): 8.56 nM
B5: A63K (designed binder)
chain: B2 chain with I22E, A63K

apparent Kd (screen): 7.07 nM
B6: E42L (designed binder)
chain: B2 chain with I22E, E42L

apparent Kd (screen): 1.05 nM
B10: R96M (designed binder)
chain: B2 chain with I22E, R96M

apparent Kd (screen): 0.718 nM
B12: E78Q (designed binder)
chain: B2 chain with I22E, E78Q

apparent Kd (screen): 2.73 nM
B13: E3N (designed binder)
chain: B2 chain with E3N, I22E

apparent Kd (screen): 1.05 nM
B15: S59R (designed binder)
chain: B2 chain with I22E, S59R

apparent Kd (screen): 5.31 nM
B17: Y50S (designed binder)
chain: B2 chain with I22E, Y50S

apparent Kd (screen): 15.2 nM
B22: S1C (designed binder)
chain: B2 chain with S1C, I22E

apparent Kd (screen): 0.446 nM
B23: K18S (designed binder)
chain: B2 chain with K18S, I22E
